B1: C-terminally 6×His tagged human MD-2, baculovirus-derived (Sf9 insect cells), purified (ligand)
chain: QKQYWVCNSSDASISYTYCDKMQYPISINVNPCIELKGSKGLLHIFYIPRRDLKQLYFNLYITVNTMNLPKRKEVICRGSDDDYSFCRALKGETVNTTISFSFKGIKFSKGKYKCVVEAISGSPEEMLFCLEFVILHQPNSNHHHHHH
notes: Purified from supernatants (secreted); also called MD-2^6xHis; MD-2^6×His
B2: endogenous soluble MD-2 in serum of healthy human donors (ligand)
chain: QKQYWVCNSSDASISYTYCDKMQYPISINVNPCIELKGSKGLLHIFYIPRRDLKQLYFNLYITVNTMNLPKRKEVICRGSDDDYSFCRALKGETVNTTISFSFKGIKFSKGKYKCVVEAISGSPEEMLFCLEFVILHQPNSN
notes: Natural protein in serum; also called sMD-2; serum MD-2

Experiments:
[1] = molecular target: T1, TLR4:Fc fusion protein (entire extracellular domain of hTLR4, amino acids 1-632, fused to the Fc portion of … (human; mouse, UniProt P01863 98-330 = IgG part); assay: indirect ELISA-like assay: TLR4:Fc captured on protein A coated plate, MD-2 titrated 0.1 to 50 nM, Ni-HRP detection, absorbance at 450 nm; without LPS (dotted line)
T1 construct: domain: C-terminal 233 amino acid Fc portion; Secreted by retrovirally transduced HEK293 cells; also called T4:Fc; TLR4:Fc chimera
T1 sequence (P01863 other isoform, or with tags, fused parts or gaps limits assumed): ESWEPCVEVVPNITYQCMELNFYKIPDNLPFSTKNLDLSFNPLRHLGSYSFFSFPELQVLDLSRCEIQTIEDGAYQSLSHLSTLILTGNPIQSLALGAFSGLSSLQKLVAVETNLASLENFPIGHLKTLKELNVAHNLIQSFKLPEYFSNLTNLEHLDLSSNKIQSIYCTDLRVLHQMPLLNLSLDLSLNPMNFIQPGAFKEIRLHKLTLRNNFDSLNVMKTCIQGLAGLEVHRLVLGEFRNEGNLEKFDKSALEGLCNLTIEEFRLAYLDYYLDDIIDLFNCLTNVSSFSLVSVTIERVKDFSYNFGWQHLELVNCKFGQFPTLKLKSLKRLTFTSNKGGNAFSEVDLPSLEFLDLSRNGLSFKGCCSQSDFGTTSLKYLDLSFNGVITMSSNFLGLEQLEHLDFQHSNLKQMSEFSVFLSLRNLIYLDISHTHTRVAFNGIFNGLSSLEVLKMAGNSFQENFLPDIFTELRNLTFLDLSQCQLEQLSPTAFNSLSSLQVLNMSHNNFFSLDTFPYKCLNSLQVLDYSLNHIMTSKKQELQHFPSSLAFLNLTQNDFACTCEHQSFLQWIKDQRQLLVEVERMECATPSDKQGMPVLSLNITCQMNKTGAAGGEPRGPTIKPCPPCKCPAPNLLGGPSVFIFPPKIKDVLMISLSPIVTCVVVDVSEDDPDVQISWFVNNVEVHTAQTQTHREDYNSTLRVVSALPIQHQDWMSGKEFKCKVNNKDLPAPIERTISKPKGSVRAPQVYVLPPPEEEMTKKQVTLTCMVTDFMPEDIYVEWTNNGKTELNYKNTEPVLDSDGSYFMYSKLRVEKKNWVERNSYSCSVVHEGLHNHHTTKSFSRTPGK
Experimental: FIG. 4A is a line graph of MD-2^6xHis binding to TLR-4:Fc. MD-2^6xHis was added in titrated amounts (0.1 to 50 nM). To control for non-specific binding to protein A, 50 nM of MD-2 was plated in the absence of TLR4:Fc (“50”). […] The apparent […] of this interaction is of ˜12 nM.
To determine the Kd for the interaction between TLR4 and MD-2, an indirect ELISA-like binding assay was developed. Fifty μl of purified TLR4:Fc at 20 μg/ml (FIG. 4A) or at the concentration indicated in FIG. 4B was plated on protein A coated, high-protein binding 96 well plates. […] MD-2 bound to TLR4:Fc was detected using Ni-HRP (1:2,000 in PBS-Tween, Sigma), and developed by incubation with its chromogenic substrate per the manufacturer's instructions (DAKO, Carpinteria, Calif.). Each condition was measured in triplicate; the absorbance of each sample was measured at 450 nm; the results are presented as the average reading±SD.
In FIG. 4A, saturating amounts of TLR4:Fc were adsorbed to protein A coated 96 well plates and purified soluble MD-2 was added in titrated amounts. The 6×His tag present at the C terminus of MD-2 was detected using a Ni based HRP labeled reagent, and the presence of MD-2 bound to TLR4 was detected using a chromogenic substrate. […]

[2] = molecular target: T1, TLR4:Fc fusion protein (entire …); assay: depletion of human serum with TLR4:Fc loaded protein A beads, read out on NF-κB reporter cells (FIG. 6A)
Experimental: Human serum was collected from healthy volunteers using standard serum Vacutainers™ blood collection tubes (Becton Dickinson) and clotted for 30 minutes at room temperature. The blood clot was removed by centrifugation and serum stored at −20° C. in 1 ml aliquots until use. MD-2 was removed from serum using immunoaffinity techniques using chimeric antibody-like proteins bound to protein A Sepharose™ beads (PAS). Human antibodies can potentially compete with the TLR chimeras for binding sites on protein A beads. Therefore, they were removed from serum by two preclearing steps, of two hours each, with 1/10 the volume of packed PAS beads.
HEK293 cells that had been transduced with retrovirus encoding the TLR:Fc fusion proteins were grown in protein free medium and served as the source of conditioned medium. TLR4:Fc and TLR2:Fc were captured from 50-100 ml of medium using 40 μl of packed PAS/ml for one hour at 4° C. Coated beads were then added to sera that had been precleared with PAS alone for 1 hour at 4° C. Human serum was diluted in DMEM to a final concentration of 20% v/v before use on reporter cells. Before each conjugation/treatment step, the beads were washed with 20% ethanol in PBS followed by equilibration in DMEM. Reconstitution with MD-2 was performed by adding the indicated amounts of recombinant purified MD-2 to the TLR4:Fc depleted stimulating media. […]

Binder | Kd [1] | binding result [2]
B1 | ~12 nM | –
B2 | – | binds
